Results from paper PMC6332795 (Theranostics, 2019).
Positions count from the first letter of the chain named.

T1: hemagglutinin (HA) of influenza B virus B/Lee/1940, on purified virus (influenza B virus (B/Lee/1940))
T1 chain: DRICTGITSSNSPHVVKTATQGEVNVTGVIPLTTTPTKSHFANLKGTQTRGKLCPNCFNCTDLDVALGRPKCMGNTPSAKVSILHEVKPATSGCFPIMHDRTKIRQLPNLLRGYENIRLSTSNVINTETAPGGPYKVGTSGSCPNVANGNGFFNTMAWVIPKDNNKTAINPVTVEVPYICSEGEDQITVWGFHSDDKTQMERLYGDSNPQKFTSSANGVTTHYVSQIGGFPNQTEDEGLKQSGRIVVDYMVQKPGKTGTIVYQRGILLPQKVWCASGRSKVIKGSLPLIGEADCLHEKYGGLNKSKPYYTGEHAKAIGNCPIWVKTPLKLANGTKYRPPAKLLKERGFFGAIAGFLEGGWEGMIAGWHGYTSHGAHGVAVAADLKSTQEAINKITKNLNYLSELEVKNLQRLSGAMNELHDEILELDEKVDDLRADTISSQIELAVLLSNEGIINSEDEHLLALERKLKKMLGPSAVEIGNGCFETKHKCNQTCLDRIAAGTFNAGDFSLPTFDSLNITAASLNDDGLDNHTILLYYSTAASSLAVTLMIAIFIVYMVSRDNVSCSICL

B1: C7G6-IgM (antibody, V domains shown)
VH: EVQLQQSGPELVKPGASVKISCKASGYTFTDYNMHWVKQSLGKSLEWIGYIYPNNGGTGYNQKFESKATLTADNSSSTAYMELRTLTSEDSAVYYCVRSGAYYFNYLVPYFDYWGQGTTLTVSS
VL: NIVLTQSPASLAVSLGQRGTISCRASESVDIYGNSFMHWYQQKPGQPPKLLIYLASKLECGVCARFNGSGCRTDFTLAIDPVEGDDGATYYCQQNYEDPWTFGGGTKLEIK
B2: C11B10 (antibody, V domains shown)
VH: EVQLQQSGPELVKPGASVKISCKASGYTFTGYNMHWVKQSHGKSLEWIGKIYPNNGVTGYNQEFRSKATLTVDNSSSTAYMELRSLTSEDSAIYFCVRSGAYYVNYLVPYFDYWGQGTTLTVSS
VL: B1 VL with L15P, G19A, V29I, Q42K, L54R, K57N, C60S, C63P, C71S, A78T
B3: C7G6-IgG (antibody, V domains shown)
VH: B1 VH
VL: B1 VL
B4: C3G10-IgM (antibody, V domains shown)
VH: EVQLQESGAELVKPGASVKLSCTASGFDIKDTYIHWVKQKPEKGLEWIGRIDPADGDTQSDPRFQGKATITSDTSSNTTYLHLSSLTSEDTAVYYCAKGGWYFDVWGAGTTVTVSS
VL: HIVLTQSPASLAVSLGQRGTISCRASESVDSYGNSFMHWYQQRPGQPPKLLIYLASKLKCGVPARFSGSGSRTDFTLTNDPLEGGDGATYYCQQNNEVPRTFGGGTKLEIK
B5: C3G10-IgG (antibody, V domains shown)
VH: B4 VH
VL: B4 VL
B6: C10H10-IgM (antibody, V domains shown)
VH: EIQLQQSGPELVKPGASLKVSCKGFGYSFTDYKMYWVKQSHGKSLEWIGYIDPYNGGMRYNQKFKVKATLTVDMSSNTTFMHLNSLTFEDFAVYYCARGYGKNYAMEYWGQGTSVTVSS
VL: NIVLTQSPASLAVSLGQRATISCRASESVDTYGQSFMHWYQQKPGQPPKLLIHLASNLESGVPARFNGSGSRTDFTLTIDPVEADDAATYYCQQNNEDPYTFGGGTKLEIK
B7: C10H10-IgG (antibody, V domains shown)
VH: B6 VH
VL: B6 VL

Columns and labels:
[1] = target: B/Florida/4/2006 HA (recombinant HA protein) (Influenza B virus (B/Florida/4/2006), UniProt E1TVD5, strain, biotin (EZ-Link Sulfo-NHS-LC-Biotin kit)); assay: BLI
[2] = target: T1, hemagglutinin (HA) of influenza B virus …; assay: ELISA

Binder	Kd [1]	binding result [2]
B1	0.58 nM	binds
B2	–	no binding
B3	24.7 nM	binds
B4	–	binds
B5	–	binds
B6	–	no binding
B7	–	no binding
